Data: paper PMC8484739 (The Journal of Biological Chemistry, 2021)
Where a chain is given by its changes, count along the chain named. Numbers in names are those of the source. Where two headings read alike, the source gives them in different places.

How the values were obtained:
[1] = biological target: wild type CD70-His-Avi (human) (UniProt P32970); assay: SPR
[2] = biological target: wild type CD70-His-Avi (human) (UniProt P32970); assay: SPR; remark: listed apart in the source
[3] = biological target: wild type CD70-His-Avi (human) (UniProt P32970); assay: SPR; remark: listed apart in the source
SEC = biological target: the molecule itself; assay: SEC
[4] = biological target: human CD70 S137K, His-Avi tagged, purified (human) (UniProt P32970); assay: SPR
CD70-A80F (human) = CD70-A80F (human) (UniProt P32970); assay: SPR
CD70-A80R (human) = CD70-A80R (human) (UniProt P32970); assay: SPR
CD70-H148A (human) = CD70-H148A (human) (UniProt P32970); assay: SPR
CD70-H148D (human) = CD70-H148D (human) (UniProt P32970); assay: SPR
CD70-H148E (human) = CD70-H148E (human) (UniProt P32970); assay: SPR
CD70-Q61A (human) = CD70-Q61A (human) (UniProt P32970); assay: SPR
CD70-S137A (human) = CD70-S137A (human) (UniProt P32970); assay: SPR
CD70-S137E (human) = CD70-S137E (human) (UniProt P32970); assay: SPR
CD70-S137K (human) = CD70-S137K (human) (UniProt P32970); assay: SPR
CD70-S146A (human) = CD70-S146A (human) (UniProt P32970); assay: SPR
wild type CD70-His-Avi = biological target: T1, wild type CD70-His-Avi (human, UniProt P32970 45-193); assay: SPR
T1 sequence (looked up): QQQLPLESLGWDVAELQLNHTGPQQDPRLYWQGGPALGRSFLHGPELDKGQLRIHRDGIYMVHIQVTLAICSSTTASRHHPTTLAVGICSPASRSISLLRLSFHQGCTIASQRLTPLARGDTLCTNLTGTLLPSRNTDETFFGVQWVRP

human CD27 wild-type (glycosylated) (from UniProt P26842 23-127) (receptor)
Kd [1]: 135 nM
Kd [2]: 121 nM
Kd [3]: 134 nM
half-life (calculated from kd) [3]: 2.67 min

deglycosylated human CD27 (from UniProt P26842 23-127) (receptor)
Kd [3]: 118 nM
half-life (calculated from kd) [3]: 1.9 min

B1: glycosylated human CD70 (crystallisation construct) (ligand, UniProt P32970 45-193, looked up)
chain: T1 sequence (looked up)
modifications: N-linked glycans on N63 and N170; core fucosylation at N63
stoichiometry N (SEC): 3

B2: human CD27 wild type, glycosylated (residues A23-S127) (receptor)
chain: APKSCPERHYWAQGKLCCQMCEPGTFLVKDCDQHRKAAQCDPCIPGVSFSPDHHTRPHCESCRHCNSGLLVRNCTITANAECACRNGWQCRDKECTECDPLPNPS
modifications: N-linked glycan (glycosylated form)
Kd [4]: 113 nM

B3: human CD27 wild-type (glycosylated) (receptor)
chain: B2 chain
modifications: N-linked glycans kept (glycosylated; no Endo H digestion)
Kd (CD70-A80F (human)): 643 nM
Kd (CD70-A80R (human)): 163 nM
Kd (CD70-H148A (human)): 236 nM
Kd (CD70-H148D (human)): 477 nM
Kd (CD70-H148E (human)): 380 nM
Kd (CD70-Q61A (human)): 205 nM
Kd (CD70-S137A (human)): 156 nM
Kd (CD70-S137E (human)): 526 nM
Kd (CD70-S137K (human)): 135 nM
Kd (CD70-S146A (human)): 116 nM

B4: CD27-K115A (receptor, human, UniProt P26842 23-127, looked up)
chain: B2 chain with K93A
modifications: glycosylated
Kd (wild type CD70-His-Avi): 102 nM
koff (wild type CD70-His-Avi): 0.00351 s⁻¹
kon (wild type CD70-His-Avi): 34500 M⁻¹ s⁻¹

B5: CD27-N95A (receptor, human, UniProt P26842 23-127, looked up)
chain: B2 chain with N73A
Kd (wild type CD70-His-Avi): 100 nM
koff (wild type CD70-His-Avi): 0.00726 s⁻¹
kon (wild type CD70-His-Avi): 72500 M⁻¹ s⁻¹

B6: CD27-R30A (receptor, human, UniProt P26842 23-127, looked up)
chain: B2 chain with R8A
modifications: glycosylated
Kd (wild type CD70-His-Avi): 351 nM
koff (wild type CD70-His-Avi): 0.0047 s⁻¹
kon (wild type CD70-His-Avi): 13400 M⁻¹ s⁻¹

B7: CD27-S83A (receptor, human, UniProt P26842 23-127, looked up)
chain: B2 chain with S61A
modifications: glycosylated
Kd (wild type CD70-His-Avi): 254 nM
koff (wild type CD70-His-Avi): 0.00854 s⁻¹
kon (wild type CD70-His-Avi): 33600 M⁻¹ s⁻¹
